{"source": "paper PMC9600270", "about": "(Cancers, 2022)", "key": {"[1]": {"tested_on": "RD cells (cell surface nucleolin)", "assay": "Lactoferrin competition of QD-F3 binding, RD", "format": "cell-based", "conditions": "2 μM lactoferrin pretreatment 20 min, then 20 nM QD-F3 + 2 μM lactoferrin 1 h on ice, FACS"}, "[2]": {"tested_on": "Rh30 cells (cell surface nucleolin)", "assay": "Lactoferrin competition of QD-F3 binding, Rh30", "format": "cell-based", "conditions": "2 μM lactoferrin pretreatment 20 min, then 20 nM QD-F3 + 2 μM lactoferrin 1 h on ice, FACS"}}}
{"molecule": "lactoferrin: human milk lactoferrin, high-affinity natural ligand of nucleolin (protein, UniProt P02788 20-710, looked up) Lactotransferrin: GRRRSVQWCAVSQPEATKCFQWQRNMRKVRGPPVSCIKRDSPIQCIQAIAENRADAVTLDGGFIYEAGLAPYKLRPVAAEVYGTERQPRTHYYAVAVVKKGGSFQLNELQGLKSCHTGLRRTAGWNVPIGTLRPFLNWTGPPEPIEAAVARFFSASCVPGADKGQFPNLCRLCAGTGENKCAFSSQEPYFSYSGAFKCLRDGAGDVAFIRESTVFEDLSDEAERDEYELLCPDNTRKPVDKFKDCHLARVPSHAVVARSVNGKEDAIWNLLRQAQEKFGKDKSPKFQLFGSPSGQKDLLFKDSAIGFSRVPPRIDSGLYLGSGYFTAIQNLRKSEEEVAARRARVVWCAVGEQELRKCNQWSGLSEGSVTCSSASTTEDCIALVLKGEADAMSLDGGYVYTAGKCGLVPVLAENYKSQQSSDPDPNCVDRPVEGYLAVAVVRRSDTSLTWNSVKGKKSCHTAVDRTAGWNIPMGLLFNQTGSCKFDEYFSQSCAPGSDPRSNLCALCIGDEQGENKCVPNSNERYYGYTGAFRCLAENAGDVAFVKDVTVLQNTDGNNNEAWAKDLKLADFALLCLDGKRKPVTEARSCHLAMAPNHAVVSRMDKVERLKQVLLHQQAKFGRNGSDCPDKFCLFQSETKNLLFNDNTECLARLHGKTTYEKYLGPQYVAGITNLKKCSTSPLLEACEFLRK", "values": [{"measurement": "QD-F3 binding upon co-incubation with excess lactoferrin", "setting": "[1]", "value": "clear decrease"}, {"measurement": "QD-F3 binding upon co-incubation with excess lactoferrin", "setting": "[2]", "value": "clear decrease"}]}
